Assay results: PMC4703965, “Inhibition of Canonical NF-κB Signaling by a Small Molecule Targeting NEMO-Ubiquitin Interaction” (Scientific Reports, 2016)

Legend:
linear Ub2 [1] = molecular target: T1, linear Ub2 (UniProt P0CG48 1-76; P0CG48 1-76); test: NMR titration; 1H,15N TROSY of 100 μM 15N-labeled NEMO_(UBAN) (258–350) without or with unlabeled linear Ub2 at 2:1 (NEMO_(UBAN):Ub2); details: both partners purified
T1 construct: ubiquitin, distal moiety of Met1-linked linear di-ubiquitin (two ubiquitins head to tail on one chain); ubiquitin, proximal moiety of Met1-linked linear di-ubiquitin; also called linUb2; methionine-1-linked linear di-ubiquitin; source: recombinant

[2] = molecular target: the molecule itself; test: SEC-MALS; size exclusion chromatography (SEC) in combination with static light scattering (SLS); in solution
[3] = molecular target: the molecule itself; test: SAXS; 293 K; 300 mM NaCl, 50 mM Tris-HCl pH 8.0; NEMO_(UBAN) C347S 2.8–9.9 mg/ml; NEMO_(UBAN) C347S and linear Ub2 mixed 2:1 (3.5–12.9 mg/ml) and 2:2 (4.9–12.1 mg/ml)
linear Ub2 [4] = molecular target: T1, linear Ub2; test: MST + ITC; Microscale Thermophoresis and Isothermal Titration Calorimetry of NEMO_(UBAN) C347S with linUb2; conditions not shown; details: both partners purified

B1: NEMO_(UBAN) (258–350) (domain or fragment, UniProt Q9Y6K9 258-350, looked up)
chain: MQLEDLKQQLQQAEEALVAKQEVIDKLKEEAEQHKIVMETVPVLKAQADIYKADFQAERQAREKLAEKKELLQEQLEQLQREYSKLKASCQES
notes: NEMO (IKKγ, NF-κB essential modulator), UBAN / CC2-LZ region, residues 258–350; 15N-labelled for the NMR experiment; The His6 tag was cleavable by 3C or TEV protease; also called NEMO_(258–350); NEMO_(UBAN) WT; source: cloned into pET vectors, recombinant, purified (details in the Supporting Information); not shown: His6, N-terminal, cleaved
- binding result (linear Ub2 [1]): binds
- stoichiometry N [2]: 2

B2: NEMO_(UBAN) C347S (258–350) (domain or fragment, UniProt Q9Y6K9 258-350, looked up)
chain: MQLEDLKQQLQQAEEALVAKQEVIDKLKEEAEQHKIVMETVPVLKAQADIYKADFQAERQAREKLAEKKELLQEQLEQLQREYSKLKASSQES
notes: NEMO (IKKγ), UBAN / CC2-LZ region, residues 258–350 with C347S; Used for SAXS, for MST/ITC and unlabelled in the NMR experiments with 15N-linUb2; also called NEMO_(258–350) C347S; source: cloned into pET vectors, recombinant, purified (details in the Supporting Information); not shown: His6, N-terminal, cleaved
- stoichiometry N [3]: 2
- Kd (linear Ub2 [4]): 1000 to 2000 nM
